Experimental data published in patent US20210371529A1 (Innovent, published 2021).
Residue numbers refer to the chain shown, from its start. Blank lines part the entries; values can stand above or below the binder they belong to.

Key:
[1] = target: T1, LAG-3 on activated human CD4+ T cells (human, UniProt P18627 23-525); experiment: flow cytometry on activated human CD4+ T cells, MFI curve
T1 construct: whole, on cells; also called endogenous LAG-3
T1 sequence (looked up): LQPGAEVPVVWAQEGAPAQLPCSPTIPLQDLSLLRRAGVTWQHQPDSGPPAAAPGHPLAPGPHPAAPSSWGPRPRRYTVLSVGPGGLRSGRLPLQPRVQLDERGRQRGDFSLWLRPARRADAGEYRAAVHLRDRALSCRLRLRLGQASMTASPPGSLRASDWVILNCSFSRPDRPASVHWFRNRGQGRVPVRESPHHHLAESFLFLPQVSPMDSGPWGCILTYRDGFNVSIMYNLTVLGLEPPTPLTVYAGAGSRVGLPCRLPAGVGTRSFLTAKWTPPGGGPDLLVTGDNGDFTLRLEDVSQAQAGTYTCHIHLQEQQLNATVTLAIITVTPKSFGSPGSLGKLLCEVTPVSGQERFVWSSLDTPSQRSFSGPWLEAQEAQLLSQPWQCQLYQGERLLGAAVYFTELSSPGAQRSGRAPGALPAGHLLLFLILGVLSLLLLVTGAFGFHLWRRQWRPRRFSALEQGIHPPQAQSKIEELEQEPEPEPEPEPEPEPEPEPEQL
Protocol: CD4+ T cell isolation: This was performed according to the ‘Untouched CD4+ T cell isolation’ kit instructions (11346D, Invitrogen). PBMCs were left for 2 h before the cell suspension was pipetted into a 15-mL centrifugation tube. The cells were centrifuged at 200 g for 10 min, and the precipitate was resuspended with 500 μL of a separating medium, 100 μL of AB type serum and 100 μL of purified antibody. The mixture was incubated for 20 min at 4° C., and washed once with the separating medium. 500 μL of a Bead Buffer (Invitrogen) was added for an incubation of 15 min, and the beads were then removed by a magnetic field. The mixture was washed once with a T cell culture medium, and resuspended with 8 mL of a culture medium. The resulting mixture was then incubated at 37° C. in presence of 6% CO₂.
According to the ratio of magnetic beads to CD4⁺ T cells equivalent to 1:1, anti-CD3/CD28 magnetic beads (Gibco) were added to CD4⁺ T cells for stimulation for 3 days. The cell density was adjusted to 1×10⁶/mL. The cells were loaded into a first well, 150 μL/well, and into other wells, 100 μL/well. […] The samples were mixed well. […] The mixture was resuspended in 60 μL of PBS and analyzed by flow cytometry. The flow cytometry was performed on an Accuri C6 system (BD Biosciences), and a concentration-dependent curve was fitted with GraphPad according to the mean fluorescence intensity (MFI).

[2] = target: T2, human LAG-3-His (human, UniProt P18627 23-450); experiment: BLI (ForteBio), antibody on AHQ tip, human LAG-3-His 100 nM in solution
T2 construct: Bought antigen (ArcoBiosystems), 100 nM in solution in the ForteBio assay; also called human LAG-3 antigen (ArcoBiosystems); hLAG-3; not shown: His tag
T2 sequence (looked up): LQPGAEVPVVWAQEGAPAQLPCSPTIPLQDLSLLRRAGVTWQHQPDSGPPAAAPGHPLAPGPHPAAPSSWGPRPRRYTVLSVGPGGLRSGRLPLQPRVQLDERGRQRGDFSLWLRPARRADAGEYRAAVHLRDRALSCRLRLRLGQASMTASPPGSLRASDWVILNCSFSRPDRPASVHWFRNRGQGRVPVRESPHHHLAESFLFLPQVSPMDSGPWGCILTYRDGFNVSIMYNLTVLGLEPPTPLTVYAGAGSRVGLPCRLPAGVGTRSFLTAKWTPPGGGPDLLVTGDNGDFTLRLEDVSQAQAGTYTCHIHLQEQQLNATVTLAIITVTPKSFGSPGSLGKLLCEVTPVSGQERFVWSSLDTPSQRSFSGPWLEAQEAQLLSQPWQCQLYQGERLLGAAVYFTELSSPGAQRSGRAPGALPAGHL
Protocol: The purified antibody obtained as described above was loaded on-line onto an AHQ sensor (ForteBio) for ForteBio affinity assay. The sensor with the loaded antibody was then exposed to 100 nM of a human LAG-3 antigen (ArcoBiosystems) for 5 minutes before transferring the sensor to the assay buffer for dissociation for 5 minutes for dissociation rate measurement. Kinetic analysis was performed using a 1:1 binding model.

[3] = target: T3, mouse LAG-3 overexpressed on CHO cells (mouse, UniProt Q61790 24-521); experiment: flow cytometry (MFI) on CHO cells overexpressing mouse LAG-3; value from the EC50 table on the sheet, which has no unit of its own (concentration axis in nM); the curve has no plateau
T3 construct: whole, on cells; also called CHO-mLAG-3 cells; mouse LAG-3 on the cell surface
T3 sequence (looked up): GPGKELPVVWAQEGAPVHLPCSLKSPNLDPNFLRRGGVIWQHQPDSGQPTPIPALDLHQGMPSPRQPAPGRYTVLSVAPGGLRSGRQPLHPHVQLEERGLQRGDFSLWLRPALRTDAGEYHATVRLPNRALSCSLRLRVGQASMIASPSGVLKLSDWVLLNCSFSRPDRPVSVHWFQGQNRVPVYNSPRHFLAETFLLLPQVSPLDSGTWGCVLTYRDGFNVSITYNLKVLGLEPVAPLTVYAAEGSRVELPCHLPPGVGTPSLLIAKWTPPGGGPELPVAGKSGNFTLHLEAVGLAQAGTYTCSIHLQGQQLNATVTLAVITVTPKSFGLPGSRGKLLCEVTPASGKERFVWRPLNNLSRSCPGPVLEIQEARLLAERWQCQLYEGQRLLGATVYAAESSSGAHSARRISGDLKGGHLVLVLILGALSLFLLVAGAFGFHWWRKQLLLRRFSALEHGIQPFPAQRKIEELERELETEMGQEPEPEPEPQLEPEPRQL
Protocol: (§1) The cells were incubated on ice for 30 min. The cells were then washed at least twice prior to addition of a secondary antibody (a PE-labeled goat anti-human IgG antibody, Southern Biotech, final concentration […]) diluted in 1:100, and incubated on ice (protected from light) for 30 minutes. The cells were washed at least twice and analyzed by flow cytometry. The flow cytometry assay was performed on an Accuri C6 system (BD Biosciences), and a concentration-dependent curve was fitted with GraphPad according to the mean fluorescence intensity (MFI).

[4] = target: T3, mouse LAG-3 overexpressed on CHO cells; experiment: flow cytometry on CHO-mLAG-3 cells, MFI curve
Protocol: as §1

EC50 [1]: 0.013 nM | koff [2]: 0.0002 s⁻¹ | kon [2]: 330000 M⁻¹ s⁻¹ | EC50 [3]: ~12100 nM
B1: ADI-31851 (antibody, human IgG4 S228P, kappa, F234A L235A, V domains shown)
VH: QLQLQESGPGLVKPSETLSLTCTVSGGSISSPDYYWGWIRQPPGKGLEWIGSIVYSGYTYYNPSLKSRVTISVDTSKNQFSLKLSSVTAADTAVYYCARVRTWDQSFDIWGQGTMVTVSS
VL: DIQMTQSPSSLSASVGDRVTITCQAGQDISNYLNWYQQKPGKAPKLLIYDASNLETGVPSRFSGSGSGTDFTFTISSLQPEDIATYYCQQVLELPPWTFGGGTKVEIKR
notes: IgG4 heavy chain constant region with kappa light chain; expressed in HEK293 cells

EC50 [4]: 42.3 nM | EC50 [1]: 0.011 nM | koff [2]: 0.0002 s⁻¹ | kon [2]: 322000 M⁻¹ s⁻¹
B2: ADI-31853 (antibody, human IgG4 S228P, kappa, F234A L235A, V domains shown)
VH: B1 VH with S30Y, P32E, D33S, Q105A, S106A
VL: B1 VL with G26S
notes: as for B1
